For this assay, the target named is Escherichia coli cytochrome bd-II type oxidase (hetero-trimer of AppC, AppB and AppX) (E. coli) (UniProt P26459). Put plainly: cryo-EM structure; bd-II in amphipol A8-35, 5.6 mg/mL, incubated with aurachin D; 20 mM MOPS, 20 mM NaCl, pH 7.0; C2 symmetry imposed; 3.0 Å.

Usually stoichiometry N stands for a count of units in the complex or per binding partner.

With “Escherichia coli cytochrome bd-II type oxidase (hetero-trimer of AppC, AppB and AppX) (from UniProt P26459 1-514; P26458 1-378; P24244 1-30) (complex)”, the stoichiometry N was 2.

Values taken from publication PMC8585947, “Structure of Escherichia coli cytochrome bd-II type oxidase with bound aurachin D” (Nature Communications, 2021).
